Laboratory results reported in the supplement of paper PMC10724198.
± gives the standard deviation of the averaged measurements.

System: Saccharomyces cerevisiae
Test: protein stability index of tFT-peptide fusion (C-terminal peptide) (PSI (0-1 scale)); higher = more stable (slower turnover)
Conditions: genetic background: wild type; temperature: 30 C
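Also: PSI is a weighted mean of sequencing reads over stability bins, variants kept only with over 10 reads, mCherry proximal and sfGFP distal, peptide attached via GGGS linker.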

Sequence	protein stability index
VWVFGLGLGRVV	0.691 ± 0.032
VWVGSLWEHPTV	0.781 ± 0.17
VWVWVGGGSRGC	0.7121 ± 0.0041
VYAETMTKELRG	0.69 ± 0.053
VYDCDVRHFGQC	0.761 ± 0.053
VYHMFHLGPSFD	0.7051 ± 0.0015
VYLEWQFGIKEL	0.648 ± 0.052
VYMWFVDSPGGS	0.682 ± 0.037
VYSLQSFSVRRY	0.704 ± 0.018
VYYRRFTGGGLY	0.583 ± 0.016
WACYRLGCGGSW	0.774 ± 0.041
WAFSAFDHCVAS	0.665 ± 0.058
WCAYRPGSTGHR	0.731 ± 0.058
WCLDVGSVSWPF	0.79432 ± 0.0005
WCNLSFEDNYVT	0.658 ± 0.018
WCWCSLVVDGTA	0.5707 ± 0.0047
WFGAECVCVRGG	0.762 ± 0.2
WFHSANLFLSLS	0.705 ± 0.077
WFPNQCFENEIP	0.742 ± 0.054
WFRCCGVLGCLG	0.657 ± 0.019
WFRGRIFLFPLV	0.628 ± 0.014
WGDGRGRVWEIS	0.674 ± 0.048
WGEGRGRVWEIS	0.665 ± 0.036
WGGCGSVGRGGA	0.739 ± 0.052
WGGGGGGDCVGA	0.6732 ± 0.0029

Sequence	protein stability index
WGGGGGLCGMWA	0.679 ± 0.032
WGGGGPGWGSRG	0.621 ± 0.027
WGGRNWDGRGCG	0.612 ± 0.068
WGGWGVGGRVLW	0.675 ± 0.066
WGIQGIKFFVGA	0.7111 ± 0.0032
WGISRSLRPGEV	0.739 ± 0.12
WGQSMFSLLVSI	0.542 ± 0.035
WGRRVRVEGVVL	0.613 ± 0.022
WGSGGGRDGCGV	0.655 ± 0.083
WGTVIYGVGSGQ	0.691 ± 0.036
WGVCVIDSWQEG	0.6706 ± 0.0032
WGVGVCSRVLRS	0.674 ± 0.026
WGVVAVSGRLGA	0.78 ± 0.012
WGWGVGWSGACL	0.7116 ± 0.0017
WGWGVLRRRVGA	0.76 ± 0.082
WGWGWWEMVGRT	0.674 ± 0.0039
WGWSGGEDCLEG	0.64 ± 0.0073
WHDCLYLWADLG	0.693 ± 0.04
WILFQAGSREIR	0.701 ± 0.017
WISARQHQKTRL	0.702 ± 0.065
WKQEKYTFKKRT	0.707 ± 0.032
WLFGSFSLLFWL	0.522 ± 0.015
WLFVALRGRFEF	0.59 ± 0.042
WLKVRINFYKRK	0.52 ± 0.038
WLRCGCVKWAGG	0.657 ± 0.013

Sequence	protein stability index
WLVPLDYKEGVV	0.687 ± 0.035
WNQRMEPCLMSS	0.65 ± 0.026
WPASLCRLGSVH	0.64894 ± 0.00014
WPGRTGANTRSG	0.671 ± 0.11
WPLLLHLLHLLR	0.697 ± 0.12
WPLPRPEFCGAP	0.6316 ± 0.0011
WPLVGLIGVPGR	0.668 ± 0.035
WPMYSVIKAQLK	0.638 ± 0.015
WPPPPPPPASPH	0.719 ± 0.071
WPRPSLPPLYAP	0.685 ± 0.051
WPYDRHTRHRET	0.767 ± 0.092
WPYEPGSSIVNG	0.717 ± 0.01
WRKMSNDIRGRW	0.799 ± 0.11
WRLAVDLGRFCT	0.617 ± 0.16
WRSGLRGPAIYG	0.707 ± 0.018
WRSLVTVSTTAC	0.558 ± 0.042
WSLGLVGRGFWG	0.73 ± 0.11
WSLGRRKLLHRI	0.666 ± 0.064
WSLLLLPEFSLR	0.705 ± 0.012
WSVGYLSVALYR	0.615 ± 0.014
WSWEVTSSVCRI	0.732 ± 0.058
WTFPWICFLGFG	0.589 ± 0.029
WTRFSEKIVILR	0.582 ± 0.026
WVGRGGAVENKV	0.718 ± 0.03
WVLRRVGTVVYL	0.585 ± 0.018

Sequence	protein stability index
WVLSYVPEIGRL	0.741 ± 0.035
WVWGWRRGLRGV	0.657 ± 0.011
WVWKRLTGQDGA	0.668 ± 0.06
WWGFGGVWRCGL	0.6874 ± 0.0056
WWHVLLGGCGCW	0.753 ± 0.013
WWLARNPLLSRL	0.779 ± 0.026
WWSAHIRAGASL	0.672 ± 0.017
WWWGGGRGGMGG	0.734 ± 0.019
WYVALGRFVGGS	0.678 ± 0.049
YACFRYEYNRLR	0.679 ± 0.029
YACRLAPGDLLA	0.643 ± 0.0088
YAIINISRESLD	0.717 ± 0.062
YAVGSAGLGVGL	0.697 ± 0.1
YAVIRILCSSRR	0.5725 ± 0.0039
YDMFCSYRFYPI	0.636 ± 0.07
YDRVVHASSTMW	0.707 ± 0.013
YEASSIPAWRYV	0.529 ± 0.034
YEGPSTLVYHVR	0.915 ± 0.082
YESIVLYPEMYL	0.714 ± 0.2
YFFQAFLLRTPL	0.642 ± 0.018
YFGGRGARGRER	0.676 ± 0.027
YFGGRGPRGRER	0.714 ± 0.0095
YFGRGKLGVVRT	0.705 ± 0.013
YFKLLHSRPSVG	0.675 ± 0.044
YFLLLLLNSSTP	0.528 ± 0.042

Sequence	protein stability index
YFLPLLCRSPSL	0.707 ± 0.0095
YFPGILFGAIFS	0.668 ± 0.07
YFTNSVPVGTVA	0.501 ± 0.0076
YGSQAYAIDSKP	0.6369 ± 0.0009
YGSSFRLVFSVT	0.583 ± 0.0074
YGVEWGAESNLY	0.8019 ± 0.0068
YHIGSINLTVRQ	0.778 ± 0.083
YHLISSVRLPSS	0.731 ± 0.033
YIDLLTRVCIRR	0.6921 ± 0.0024
YIKKTTPTIERG	0.7157 ± 0.0039
YIRSYRITKREE	0.656 ± 0.035
YISEKKKIEERK	0.69 ± 0.032
YKGYEIIGSVQG	0.72 ± 0.023
YKKLTRKKIQDK	0.781 ± 0.0088
YKRKTKMQRVSN	0.627 ± 0.01
YLEQALLDVQTD	0.756 ± 0.021
YLIGRIIYFFGR	0.582 ± 0.0021
YLLLPPPPPPSL	0.722 ± 0.0098
YLNVVSSFYTCS	0.684 ± 0.02
YLPRREAALRRV	0.7118 ± 0.0034
YLSACLCGGFCS	0.684 ± 0.047
YLVSRRSGCDLE	0.683 ± 0.051
YMCPSFCLPLFP	0.731 ± 0.1
YNDGSNPYLSRS	0.722 ± 0.065
YNFLQSGADPNR	0.721 ± 0.016

Sequence	protein stability index
YNLASGIEVPID	0.664 ± 0.013
YNSSSYCGGGCG	0.6844 ± 0.0053
YPARSPPSPLSL	0.686 ± 0.025
YPDYTSATGNIR	0.666 ± 0.016
YPHQRGRPDAHH	0.71 ± 0.021
YPLRCPITATHA	0.616 ± 0.099
YPPPRPDLPLLQ	0.679 ± 0.016
YPSRSPFLSLSC	0.683 ± 0.028
YPTSLLHLHSPP	0.708 ± 0.044
YQLEDSNEKVEN	0.712 ± 0.085
YRKAAGSQDRAV	0.663 ± 0.018
YRVPWIVESFVD	0.751 ± 0.087
YSGFYIRRGLTW	0.689 ± 0.011
YSILYRMQNSKI	0.696 ± 0.021
YSKVGCRHSYHT	0.669 ± 0.017
YSPAYDHLRPDH	0.7034 ± 0.0069
YSPFCPSASPWA	0.712 ± 0.023
YSPSPPSFAFSS	0.801 ± 0.079
YSPVPPPTRPPL	0.7069 ± 0.0017
YSREVVGKQLFM	0.693 ± 0.027
YSRYAASYSMVV	0.688 ± 0.021
